The subject of this data set is Nc1ccn([C@@H]2O[C@H](COP(=O)(O)OP(=O)(O)O)[C@@H](O)[C@H]2O)c(=O)n1. The experiment in a line: purified protein. As to conditions: 10 mM ATP, MgCl2 4 mM excess, pH 8.0, 25 °C.

Among the data in paper PMC5938747 are Km and kcat values, retold here.

On to “Cj1415 (cytidine diphosphoramidate kinase, CDK) (Campylobacter jejuni subsp. jejuni NCTC 11168 = ATCC 700819)”, for which the Km (usually the concentration of substrate that gives half-maximal velocity) turned out to be 4.2 ± 0.7 mM and the kcat (usually the maximal rate divided by the concentration of active sites) is 0.64 ± 0.04 s⁻¹.
